PMC10921019

Legend:
[1] = molecular target: Parkin WT (pSer 65) (human) (UniProt O60260)
[2] = molecular target: Human wild type Parkin 1-465 (human) (UniProt O60260)
Parkin [F146A] (human) = Parkin [F146A] (human) (UniProt O60260)
Parkin [W403A] (human) = Parkin [W403A] (human) (UniProt O60260)

Ub-K formation %, MALDI-TOF discharge assay of p-Parkin without or with p-Ub-His (100, 500, 2500 nM) (% Ub-K formation) [1]: 78
residual Ub % after 10 min, MALDI-TOF auto-ubiquitylation assay of p-Parkin without or with p-Ub-His (100, 500, 2500 nM) (% residual Ub) [1]: 31.5
EC50 of p-Ub-His for the activation of Parkin, MALDI-TOF auto-ubiquitylation assay (500 nM Parkin, 0.05-5 μM p-Ub-His, 30 min) [2]: 2000 nM
EC50 of p-Ub-His for the activation of Parkin, MALDI-TOF discharge assay (500 nM Parkin, 0.05-5 μM p-Ub-His, 30 min) [2]: 1400 nM
EC50 of p-Ub-His for the activation of Parkin, MALDI-TOF auto-ubiquitylation assay (500 nM Parkin, 0.05-5 μM p-Ub-His, 30 min) (Parkin [F146A] (human)): 400 nM
EC50 of p-Ub-His for the activation of Parkin, MALDI-TOF discharge assay (500 nM Parkin, 0.05-5 μM p-Ub-His, 30 min) (Parkin [F146A] (human)): 600 nM
EC50 of p-Ub-His for the activation of Parkin, MALDI-TOF auto-ubiquitylation assay (500 nM Parkin, 0.05-5 μM p-Ub-His, 30 min) (Parkin [W403A] (human)): 200 nM
EC50 of p-Ub-His for the activation of Parkin, MALDI-TOF discharge assay (500 nM Parkin, 0.05-5 μM p-Ub-His, 30 min) (Parkin [W403A] (human)): 500 nM
Substance: p-Ubiquitin-His (pSer65-ubiquitin-6His) (natural protein)
